# Assay: yeast display, Sf9 membrane polyspecificity reagent, FACS + sequencing; frameworks hold sequencing errors
# In short: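 A synthetic nanobody library was expressed on Saccharomyces cerevisiae BJ5465 by galactose induction for 36–48 hours. The library was stained for 1 hour at 4 °C with 10% biotinylated, detergent-solubilized Sf9 membrane reagent and enriched with streptavidin microbeads before FACS. Low and high (top ~1%) gates were set on anti-HA fluorescence for expression and streptavidin fluorescence for reagent binding, and each polyreactivity label reflects the gate of origin.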
row,Sequence,polyreactivity (PSR sort gate)
1,QDQLGESGGGLLQAGGSLRLSCAASGRTFRYYAMGSYRQEPGKERELVAAISISGGNTYYADSVKGRFTISRDHAKNTVYLQMNSLKPEDTAVYYCAASFSSRFYRARVDYWGQGTQVTVSS,high polyreactivity
2,QVQLVESGGGLFQAGGSLRLSCAASGFIFRYYAMGWYRQAPGKERELVAAITRGGSTYYADSVKGRFTISRDNAKNTVYLQMNSLKPEDTAVYDCAARLYTQYYYWGQCTQVTVSS,high polyreactivity
3,QVQLVESGGGLVQAGGSLRLSCAASGSIFVLYAMGLYRQAPGTERELVAAITTGGGTNYADSVKGRFTISRDNAKNTVYLQINSLKPEDTAVYYCAADTGWYDDWTHDYWGQGTQVTVSS,low polyreactivity
4,QVQLVESGGGLVQAGGSLRLSCAASGRTFSYYAMGLYRQAPGKEREFVAAITWRGSSTYYADSVKGRFTISRDNAKNTVYLQMNSLKPEDTAVYYCNARATNVIWGRYDYWGQGTQVTVSS,high polyreactivity
5,QVQLVESGGGLVQAGGSLRLSCDASGRIFYYYGMGWYRQAPGKERELVAAISNGGRTYYADSVKGRFTISRDNAKNTVYLQMNSLKPEDTAVYYCAALTRGRGGYDYWGQGTQVTVSS,high polyreactivity
6,QVQLVESGGGLVQAGGSLRLSCAASGRTYGWYAMGWYRQAPGKERELVAAIRSSGGRTHYADSVKGRFTISRDNAKNTVYLQMNSLKPEDTAVYYCAARYSAAYYWGQGTQVTVSS,high polyreactivity
7,QVQLVESGGGLVQAGGSLRLSCAASGRTFSGYAMGGDIQAPGKERELVAAITARSGSTYYADSVKGRFTISRDNAKNTVYLLMNSLKPEDTAVYYCNAPRYAARFDYWGQGTQVTVSS,high polyreactivity
8,QVQLVESGGGLVQAGGSLRLSCAASGIIFFANAMGWYRQAPGKERELVASISASGGNTYYADSVKGRFTISRDNAKNTVYLQMNSLKPEDTAVYYCAARARRSQSISLKYYYWGQGTQVTVSS,high polyreactivity
9,QVQLQESGGGPVQAGGSMRLSCAASGSISELRPMGWYREAPGKERELVAGISTGGSTNYADSVKGRFTISRDNAKKTVFLQMNSLKPEDTAVYYCAAASYGEGSYDYWGQGTQVTVRS,high polyreactivity
10,QVHLVESGGGLVQAGGSLRLSCAASGFIFYPYAMGWYRQAPGKERELVAAITSSGGSTYYADSVKGRFTISRDNAKNTVYLQMNSLKPEDTAVYYCAAYTSYYGTIIAYRYYYWGQGTQVTVSS,high polyreactivity
11,QVQLVESGGGLVQAGGSLRLSCAASGRTFFYNTMGWYRQAPGKERELVARITRGGSTYYADSVKGRFTISRDNAKNSVYLQMNSLKPEDTAVYYCAAGYWRGYFLYGFDYWGQGTQVTVSS,high polyreactivity
12,QVHLVESGVGLVQAGVSHRLSCAASGSTYRGYAMGWYRQAPGKERELVAPITYISDSTYYADSVKGRFTISRDNAKNTVYLQMNSLKPEDSAVYYCNDYYDGDWRYTSQETGDNWGQGTQVTVSS,low polyreactivity
13,QVQLVESGGGLVQAGGSLRLSCAASGIIFKRYAMGWYRQAPGKDRELVAAISSRAGRTYYADSVKGRFTISRDNAKNNVYLQLNSLKPEDTAVYYCNTGLVYGYDYWGQGTQVTVSS,high polyreactivity
14,QVQLVESGGGLVQAGGSLRLSCAASGITFVGYAMGWYRQAPGKERELVAVINTSSSTYYADSVKGRFTISRDNAKNTVYLQLNSLKPEATAVYYCGVRGRYYYRRPQISYEYWGQGTQVTVSS,low polyreactivity
15,QVELVESGGGLVQGGGTLRLSCAASGRTFNRYAMGWYRQAPGKERELVASITRSGGSTYYADSVKGRFTISRENAKNTVSLQMNSLKPDHTAVYYCANRSSGCFGYWGQGTQVTLSS,high polyreactivity
16,QVKLVESGGGLVQAGCSLRLSCAASGFIFRSYAMGWYRQAPRKERELVAVISRRGVNTHYADSVKGRFTISRDNAKNTVYLQMNSLKPEDTAVYYCAKGLSALGDYWGQGTQVTVSS,high polyreactivity
17,QVQLVESGGGLVQAGGSLRLSCAASGYTFVYNALGWYRQAPGKEREFVAAITWSGTSTRYADSVKGRFTISRDNAKNTVYIQMTSLQPEDTAVYYCAARRRSAQSGSYNHWGQGTQVTVSS,high polyreactivity
18,QVQLVESGGGLVQAGGSLPLSCAASGSIFDDYAMGWYRQAPGKEWELVAAITSGGSTYYADSVKGRFTISRDNAKYTVYLQMNSLKPEDTAVYYCAAPENKYDEYDYWGQGTQVTVSS,low polyreactivity
19,QVQLVESGGGIVQAGGSLRLSCAASGRIFRLNAMGWYRQAPGKERELVAAISSRAGSTYYADSVKGRFTISRDNAKNTVYLQMNSLKPEDTAVYYCAARTYSSRLGRDSDYWGQGTQVTVSS,high polyreactivity
20,QVHLVESGGGLVQAGGSLRLSCAASGSIIKYYAIGWYRQAPGKERELVAAISWRGGRTYADSVKGRFTISRDNAKNTVYIQMNSLKPEDTAVYYCATSSRYRYWHRYDYWGQGTQVTVSS,high polyreactivity
21,QVQLVESGGGLVQAGGSLRLSCAASGRILYSYAMGWYRQAPGKERELVASISWSGGSTYYADSVKGRFTISRDNAKNTVYLQMNSLKPEDTAVYYCAKKYYSVYQTDVSGRYDYWGQGTQVTVSS,low polyreactivity

row,Sequence,polyreactivity (PSR sort gate)
1,QVQLVESAGGLVQAGGSLRLSCAASGSTLHYYAMGRYRQAPGKERELVAGISGSGGSTYYADSVKGRFTISRDNAKNTVYLQMNSLKPEDTAVYYCAADAYVSSQPMDYWGQGTQVTVSS,high polyreactivity
2,QVQLVESGGGLVQAGGSLRLSCAASGSIFTIYAMGWYRQAPGKERELVAAITWSGGSTYYADSVKGRFTISRDNAKNTVYLQMNSLKPEDTAVYYCAAKYYGEMYYWGQGTQVTVSS,low polyreactivity
3,QVQLVESGGGLVQAGGSLRLSCAASGYTFHGYAMGWYRQAPGKERELVAVITQRGGSTSYADSVKGRFTISRDNAKNTVYLQMNSLKPEDTAVYYCEYYYWGQGTQVTVSS,low polyreactivity
4,QVHLVESGGRLVQAGGSLRLSCAASGGTFYQYTMGWYRQAPGKERELVAAITRSGGSTRYADTVKGRFTISRDNAKNTVYLQMNSLKPEDTAVFYCAARSGYPSFEYWGPGTQVTVSS,high polyreactivity
5,QVQLVDSGGGLVQAGGSLRLSCAASGNTFGINDMGWYRKAPGKERELVAAIRISGGSTYYADSVKGRFTISRDNAKNTVYLQMNSLKPEDTAVYYCAKYGPRASLYRTGRYYWGQGTQVTVSS,high polyreactivity
6,QVQLVESGGGLVQAGGSLRLSCAASGIIFYWNAMGWYRHAPGKERELVAGITRGGSTYYADSVKGRFTISRDNAKNTVYLQMNSLKPEDTAVYYCAKRHASRRVSYSRYDYWGQGTQVTVSS,high polyreactivity
7,QVQLVESGGGLVQAGGSLRLSCAASGLIFVAYAMGWYRQAPGKERELVAAISRNGGSTYYADSVKGRFTISRDNAKNTVYLQMNSLKPEDTAVYYCAARYAYYTARYTQVKGLDYWGQGTLVTVSS,high polyreactivity
8,QVQLVESGGGLVQAGGSLRLSCAASGFIFSAYVMGWYRQAPGKERELVAAISQSGARTYYADSVKGRFTISRDNAKNTVYLQMNSLKPEDTAVYYCAADRRDFRTYDYWGQGTQVTVSS,high polyreactivity
9,QVQLVESGGGLFQAGGSLRLSCAASGRIFAYNTMGWYRQAPAKERELVAVITSGGSTNYADSVKGRFTISRDNAKNTVYLQLNSLKAEDTAVYYCAKRPYGRSGGSRYDYWGQGTQVTVSS,high polyreactivity
10,QVQLVESGGGLVQAGGSLRLSCAASGFIFADYDMGWYRQAPGKERELVAAISWSGGTTYYADSVKGRFTISRDNAKNTVYLQMNSLKPEDTAVYYCAAYWWAVYSVVTGARYDYWGQGTQVTVSS,high polyreactivity
11,QVQLVESGGGLVQAGGSLRLSCAASGFIFGTYAMGWYRHAPGKERELVAAISVGGGSTYYADSVKGRFTISRDNAKNTVYLQMNSLKPEDTAVYYCAAVQLFQKHQITYVANEYWGQGTQVTVSS,low polyreactivity
12,QVQHVESGGGLVQAGASLRLSCAASGTTFIGYERGRSRQAPGKVRELVAAISYSDGTYYADSVKGRFTISRENAKNTVYLQMNSLKPEDTAVYYCAADSLFYRYDYWGQGTQVTVSS,low polyreactivity
13,QVQLVESGGGLVQAGGSLRLSCAASGSIVRRYAMGWYRQAPGKEREFVAAISKRGGGTYYADSVKGRFTISRDNAKNTVYLQMNSLKPEDTAVYYCAAPWRRIGYTTRGYTLYDYWGQGTQVTVSS,high polyreactivity
14,QVQLVESGGGLVQAGGSLRLSCAASGRTFVANAMGWYRQAPGKERELVAAISSSGGSTYYADSVKGRFTISRDNAKNTVYLQMNSLKPEDTAVYYCNRVGVYYRLYPYYYWGQGTQVTVSS,high polyreactivity
15,QVQLVESGGGLVQAGGRLRLSCAASGRIFYLNAMGWYRQAPGKERELVAAINTSGDSSYYADSVKGRFTISRDNAKNTVYLQMNSLKPEDTAVYYCAAYVIGPDQFIYDYWGQGTQVTVSS,low polyreactivity
16,QVQLVESGGGLVQAGGSLRLSCAASGRIFSRNALGWYRQAPGKERELVAAISWRGGRTYYAVSVKGRFAISRDNAKNTVYLQMNSLKPEDTAVYYCNAVSFGRARHGGPVYGYDYWGQGTQVTVSS,high polyreactivity
17,QVQLVESVGGLVQAGGSLRLSCAASGRTFFKYAMGWYRQAPGKERELVAAITASGGSTYYADSVKGRFTISRDNAKNTVYLQMNSLKPEDTAVYYCAARWRSVFWEYYYWGQGTQVTLSS,high polyreactivity
18,QVQLVESGGGLVQAGGSLRLSCAASGSIFVPYAMGWYRQAPGKERELVAAITRSSGSTYYADSVKGRFTISRDNAKNTVYLQMNSLKPEDTAVYYCAADFLLEFDYWGQGTQVTVSS,low polyreactivity
19,QVQLVESGGGLVQAGGSLRLSCAASGIIFCRYAMGWYTQAPGKERELVAAISSSGSTYYADSVKGRFTISRDNATNTVYLQMNSLKPEDTAVYYCAAYSYPAGEYDYWGQGTQVTVSS,low polyreactivity
20,QVQLVESGGGLVQAGGSLRLSCAASGSTFIWYDMGWYRQAPGKERELVATIDGNDGSTYYADSVKGRFTISRDNAKNTVYLQMNSLKPEDTAVYYCAKRSTGRLQSYNYWGQGTQVTVSS,low polyreactivity

# Source: the nanobody polyreactivity screen of Harvey et al. (2022)
